The results in this text go back to patent publication US20110289632.

In the data set the test system is 3-ketomyristoyl-ACP (enzymatically prepared from ShACP).

Sequence of ShMKS2 (methylketone synthase 2 from Solanum habrochaites f glabratum), recombinant, without the transit peptide, His-tagged (chain, as listed by the source): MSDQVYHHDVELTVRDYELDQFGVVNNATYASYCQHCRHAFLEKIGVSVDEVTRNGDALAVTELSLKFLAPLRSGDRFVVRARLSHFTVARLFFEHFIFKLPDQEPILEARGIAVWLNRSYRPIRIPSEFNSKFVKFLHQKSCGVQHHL

As to “ShMKS2 (methylketone synthase 2 from Solanum habrochaites f glabratum), recombinant, without the transit peptide, His-tagged”, the “amount of 2-tridecanone formed (in vitro thioesterase activity assay, acid and heat treatment, GC-MS)” value was “approximately 3-fold higher than levels found in buffer-incubated substrate solution treated with acid and heat”.
